The text below walks through data of the DeepSol protein solubility set.

A short description of this series: soluble on expression in E. coli; label from the status in PepcDB or PDB records.
As to “MAHHHHHHMNRLTNTNKGYTTNKEYISNNAQKNICTINYGQTYSNILNDEEKEKILQQYIYTLSHLSIIDIDREKDISLNISLLLKACLASHNYIKNVEIYTSQIKNQDICSFIYENRTDFEDFVNTHILKYIEFFNKDKIEDTLQSYIKDKILYDNELNIFNIIKNNNIELRKDILQDISFECIRLNKIIQYSLAVNKLDLFSYHIIFKIFMYFKTDQFYYHLFLNNIQKIKYYYSIKNITDQHKEIIYKIVDKYLYIIHYMNNMYQNRDIKNV”, the “soluble on expression in E. coli” value was “not soluble”. With “MSLKALGLSKSTYYHWKHYQTSRHDKQDTILKSQIFEIWKNNYKAYGYPRITIAMRRLGVVIGPNRVYRLMQELGIRSLMGRRFKKPGTHVDYSQRPNLIKNHPIGTIWRADITYLELRPGTWVYLSTIFDQASKQIIAFNIGKEMASKLIIKTLLQALSRASKPTFLHSDMGSQYTSIAYEGLLKRHLIRHSYSKQGYPYDNGPLEAFHSLLKREFIFQTRFTSFEDLVLRVENYINWYNTERIRINEGHHHHHH”, the “soluble on expression in E. coli” value is “not soluble”. On to “MSILDLTKISKDSTKLQNFVKFERVKTGGLDVYMSEYSWNTKEAGTMSICDVSENTSLDYRSNHQQLLKSWISSTEKIAQLFPTTLRTFQVTPPMIAAILDLETAIPKTCDVLIIQNYVPAEMDRYQESVDQFMEKCHIREGVVLHHEVYTNSPKMFQLDYLSVTHSDWMVPSDLEEMENKIVYLDKSDFYDSDMNQFLRELKSGSSHSRLQILSIQGNSWQNYWDPSDVLEGLNAELWNQTERNQHYFLNAEHRKNFKKIADHFYPDQEDGFGAELEHGVDLSEAFDFLKNDGTRVSVRFDELILQVFVWPNEKPSRKRKAQEQGSIAKRFC”, for which the “soluble on expression in E. coli” value is on record as “not soluble”. For “MVTVREAKLEDIKDIAKVHVDSWRTTYHEIIPIDYLNSLNYKEFEDKWKSRSLKGVFVAQDEKGSVFGFASFGPIRSEQEGYDGELYAIYLLEERQRQGAGRALLAKGAEFLLQHGFSSMFVWVIEQNPSIIFYQAYSPERVAEDNFEIAGVRLKEVGLGWPDLSALKTLLNR”, the “soluble on expression in E. coli” value is listed as “soluble”. With “MSLDCFAPAVLGMPAFDRHATWQAMHATTHFIGRVGVAQVGLCAMNLALWDIQLKIEEVPLWRHLGPVKDRVKAYNTDGGWLTWTTAEVIDDMHHIINRGFDAVKMKLGRSDPMEDFQRVRAVRQAIGDDIKLMVDVNTVWDLETAIQWGKRLEELNVEWLEEPLHPFDVRSHAALAKAIRTPIAVGETVYTVYGFREYIAQEAAGVLQADVTKLSGIEEWLEVAAIGQTHGLQVIPHTNVQQNVHVQLAAATTNTPMIECCYESLFEIWENPVRVVDGFYTLPDVPGINGKLTETVLEKFRVSEGHHHHHH”, the “soluble on expression in E. coli” value was “soluble”. The result for “MPPLPLIGMLLGTASTMIKSSSGAAAHASGASSAPSGDAAPTAPFAQTLKRNVQTQRQTNAGAGAGAPNAGNATNAATSGTANASTTSSASEPATTNAGNTKASGKPDDQDDDKNATQSASADAAAALAAAASLQAQLQARPDAQAAQAAAPQAGASDAAHPPTTLATNTAAAGDADTSALAGAQQPVGEALNAALSKLTGAGPAGAAATQRAQPAGRNDGAPTPLAANGPFDKMLAGAKAPAAPATLTDASGTNPAVSTAAQPAASGAIAALQDAADSARATLAASSAPAALQQAAPAALAANANAAAATAAPSLAPPVGTPDWTEALSQKVVFLSNAHQQSAELTLNPPDLGPLQVVLRVAENHAHALFVSQHAQVRDAVEAALPKLREAMEAGGLGLGSASVSDGGFASAQQQQTPQRQSSDGSAARRASGAPTADAALGEVSAVSSGGVTRRSVGMVDTFA” reads “not soluble”; that for “MKSERILVVKTEDFLKEFGEFEGFMRVNFEDFLNFLDQYGFFRERDEAEYDETTKQVIPYVVIMDGDRVLITKRTTKQSEKRLHNLYSLGIGGHVREGDGATPREAFLKGLEREVNEEVDVSLRELEFLGLINSSTTEVSRVHLGALFLGRGKFFSVKEKDLFEWELIKLEELEKFSGVMEGWSKISAAVLLNLFLTQN”, “not soluble”. For “MKRLLVFLPLLLLACAPKPEAEAPQTTAPLRVQVRTLKAEPGLLTREARASANVVAEKESLVAAGASGRVVRTLPAGTRVRAGEGVVFLDPAPFQEALAQAKLALRQAEENLARAEAQTEGNRKALEAQLAAAEAQLAAAKRRYEEGKALLALGALAPLELKGLEAQYLQAQSAYENAKEALARLEREDDLRLLRLQVEAARLQVQQAERNLKESVVRAPFAGEVVEVYVKEGEFTGAGSRAFRLATTDRLLVKVYLPPERAAALTEDTAFRVRQNGKEVEARLQAKSDLPGQNRLVEVTLRPTGPLLPGAAEVRYPEVLAEGLLLPAGAVRTEDGEAFVYVVEEGRARKRPVRLLAQEGGRAAVAGLEAGEAVVYPVPEGLEDGDLVEVVP”, the “soluble on expression in E. coli” value is “soluble”.
